# T1: QP538 (SIRPαV9-mFC(mIgG2a)) (human, limits assumed)
# T1 construct: also called human SIRPα V9 recombinant protein (QP538)
# T1 chain: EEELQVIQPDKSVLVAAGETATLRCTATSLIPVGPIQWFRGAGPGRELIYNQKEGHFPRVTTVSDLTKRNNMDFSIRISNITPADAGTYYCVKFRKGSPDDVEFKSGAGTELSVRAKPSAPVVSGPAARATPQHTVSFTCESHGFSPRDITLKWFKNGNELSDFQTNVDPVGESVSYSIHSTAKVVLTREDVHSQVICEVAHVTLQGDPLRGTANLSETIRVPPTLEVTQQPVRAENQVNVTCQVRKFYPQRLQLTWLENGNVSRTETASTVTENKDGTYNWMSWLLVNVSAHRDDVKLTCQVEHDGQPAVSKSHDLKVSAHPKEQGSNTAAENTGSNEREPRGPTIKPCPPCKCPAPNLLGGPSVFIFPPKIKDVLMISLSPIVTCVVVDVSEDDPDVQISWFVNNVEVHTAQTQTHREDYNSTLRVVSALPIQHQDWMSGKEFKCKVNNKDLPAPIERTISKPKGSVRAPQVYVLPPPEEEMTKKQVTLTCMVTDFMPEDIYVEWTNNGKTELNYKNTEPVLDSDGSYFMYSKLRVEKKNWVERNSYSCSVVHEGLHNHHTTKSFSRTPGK
# T2: QP533 (SIRPαV4-mFC(mIgG2a)) (human, limits assumed)
# T2 construct: also called human SIRPα V4 recombinant protein (QP533)
# T2 chain: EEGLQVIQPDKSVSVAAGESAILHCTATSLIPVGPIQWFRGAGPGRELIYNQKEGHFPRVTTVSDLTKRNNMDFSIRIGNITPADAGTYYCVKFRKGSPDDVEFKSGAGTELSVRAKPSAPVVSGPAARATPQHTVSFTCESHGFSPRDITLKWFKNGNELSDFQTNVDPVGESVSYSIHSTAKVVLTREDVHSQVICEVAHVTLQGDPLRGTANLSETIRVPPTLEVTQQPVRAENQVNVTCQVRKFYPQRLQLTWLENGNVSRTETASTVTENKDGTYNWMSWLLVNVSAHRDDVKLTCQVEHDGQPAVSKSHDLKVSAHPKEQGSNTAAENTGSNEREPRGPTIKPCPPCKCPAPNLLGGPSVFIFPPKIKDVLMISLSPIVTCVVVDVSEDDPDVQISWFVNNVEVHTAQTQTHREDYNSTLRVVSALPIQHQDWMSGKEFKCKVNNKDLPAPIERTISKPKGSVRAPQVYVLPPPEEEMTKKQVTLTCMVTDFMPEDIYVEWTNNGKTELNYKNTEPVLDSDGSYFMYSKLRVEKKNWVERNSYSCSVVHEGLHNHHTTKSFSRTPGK
# T3: QP534 (SIRPαV5-mFC(mIgG2a)) (human, limits assumed)
# T3 construct: also called human SIRPα V5 recombinant protein (QP534)
# T3 chain: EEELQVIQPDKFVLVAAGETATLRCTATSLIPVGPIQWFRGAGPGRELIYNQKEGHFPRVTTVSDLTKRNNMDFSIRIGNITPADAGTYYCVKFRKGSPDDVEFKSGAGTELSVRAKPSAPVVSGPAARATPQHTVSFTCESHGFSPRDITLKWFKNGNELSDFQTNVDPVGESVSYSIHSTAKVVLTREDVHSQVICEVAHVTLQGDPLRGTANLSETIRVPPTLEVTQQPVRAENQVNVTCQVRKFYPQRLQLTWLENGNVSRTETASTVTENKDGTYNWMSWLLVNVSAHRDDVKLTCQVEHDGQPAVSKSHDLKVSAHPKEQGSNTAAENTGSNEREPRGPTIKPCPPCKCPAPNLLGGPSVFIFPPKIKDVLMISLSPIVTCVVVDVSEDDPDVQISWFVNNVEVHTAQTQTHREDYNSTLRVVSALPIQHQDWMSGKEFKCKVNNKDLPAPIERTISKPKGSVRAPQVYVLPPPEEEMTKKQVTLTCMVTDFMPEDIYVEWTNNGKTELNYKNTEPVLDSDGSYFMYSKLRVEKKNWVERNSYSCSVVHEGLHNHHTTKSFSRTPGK
# T4: SIRPα V9 fusion Fc (mouse IgG2a) (human, limits assumed)
# T4 chain: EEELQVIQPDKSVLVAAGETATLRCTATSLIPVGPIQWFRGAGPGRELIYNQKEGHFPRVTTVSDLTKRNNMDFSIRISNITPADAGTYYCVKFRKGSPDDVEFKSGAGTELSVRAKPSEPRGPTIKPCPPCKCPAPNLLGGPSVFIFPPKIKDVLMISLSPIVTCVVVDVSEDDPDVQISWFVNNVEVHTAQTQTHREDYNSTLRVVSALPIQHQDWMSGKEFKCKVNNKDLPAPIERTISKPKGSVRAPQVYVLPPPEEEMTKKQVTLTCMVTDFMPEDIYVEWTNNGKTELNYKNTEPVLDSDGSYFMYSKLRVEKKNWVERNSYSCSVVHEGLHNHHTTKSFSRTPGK
# Assays:
# QP095 (human SIRPα V2 …) = molecular target: T5, QP095 (human SIRPα V2 ECD(E31-R370)-mFC(IgG2a)) (human); test: ELISA, human SIRPα V2 recombinant protein (QP095) coated, HRP anti-human Fc detection
# T5 construct: also called human SIRPα V2 recombinant protein (QP095)
# [1] = molecular target: T1, QP538 (SIRPαV9-mFC(mIgG2a)); test: ELISA, human SIRPα V9 recombinant protein (QP538) coated, HRP anti-human Fc detection
# [2] = molecular target: T2, QP533 (SIRPαV4-mFC(mIgG2a)); test: ELISA, human SIRPα V4 recombinant protein (QP533) coated, HRP anti-human Fc detection
# [3] = molecular target: T6, QP532 (SIRPαV3-mFC(mIgG2a)) (human); test: ELISA, human SIRPα V3 recombinant protein (QP532) coated, HRP anti-human Fc detection
# T6 construct: also called human SIRPα V3 recombinant protein (QP532)
# [4] = molecular target: T3, QP534 (SIRPαV5-mFC(mIgG2a)); test: ELISA, human SIRPα V5 recombinant protein (QP534) coated, HRP anti-human Fc detection
# [5] = molecular target: T4, SIRPα V9 fusion Fc (mouse IgG2a); test: ELISA, SIRPα V9-mouse IgG2a Fc coated, anti-hFab detection; unit from the x axis Log(Conc.(nM))
EC50 (QP095 (human SIRPα V2 …)) [nM],EC50 [1] [nM],EC50 [2] [nM],EC50 [3] [nM],EC50 [4] [nM],EC50 [5] [nM],Binder
0.467,0.804,0.439,0.433,0.418,0.181,"QP026249 (KWAR23 analog) (antibody, human IgG4 S228P, kappa, also called KAWA23 analog; control antibody KWAR23 (QP026249), human IgG4) heavy: not shown light: QIVLTQSPAIMSASPGEKVTLTCSASSSVSSSYLYWYQQKPGSSPKLWIYSTSNLASGVPARFSGSGSGTSYSLTISSMEAEDAASYFCHQWSSYPRTFGAGTKLELKRTVAAPSVFIFPPSDEQLKSGTASVVCLLNNFYPREAKVQWKVDNALQSGNSQESVTEQDSKDSTYSLSSTLTLSKADYEKHKVYACEVTHQGLSSPVTKSFNRGEC"
–,0.854,0.539,–,0.438,0.157,"QP250251 (18D5 analog) (antibody, human IgG4 S228P, kappa, V domains shown, also called SIRPα antibody 18D5 from OSE) VH: QVQLQQPGAELVRPGSSVKLSCKASGYTFTSYWVHWVKQRPIQGLEWIGNIDPSDSDTHYNQKFKDKASLTVDKSSSTAYMQLSSLTFEDSAVYYCVRGGTGTMAWFAYWGQGTLVTVSA VL: DVVMTQTPLSLPVSLGDQASISCRSSQSLVHSYGNTYLYWYLQKPGQSPKLLIYRVSNRFSGVPDRFSGSGSGTDFTLKISRVEAEDLGVYFCFQGTHVPYTFGSGTKLEIKR"
0.218,0.438,0.169,0.31,0.167,–,"QP37503751 (1H9 analog) (antibody, human IgG1, kappa, N297A, V domains shown, also called hz1H9 hIgG1(N297A)) VH: QVQLVQSGAEVKKPGASVKVSCKASGYTFTSYWITWVKQAPGQGLEWIGDIYPGSGSTNHIEKFKSKATLTVDTSISTAYMELSRLRSDDTAVYYCATGYGSSYGYFDYWGQGTLVTVSS VL: DIQMTQSPSSLSASVGDRVTITCRASENIYSYLAWYQQKPGKAPKLLIYTAKTLAEGVPSRFSGSGSGTDFTLTISSLQPEDFATYYCQHQYGPPFTFGQGTKLEIKR"
–,–,–,–,–,0.0874,"QP256279 (antibody, human IgG4, V domains shown, Human IgG4 heavy constant region and kappa CL) VH: QVQLVQSGAEVKKPGASVKVSCKASGYTFTNYWINWVRQAPGQGLEWIAMIDPSDSETHYNQIFKDRATLTTDTSTSTAYMELRSLRSDDTAVYYCAMDYGSLYAMDYWGRGTLVTVSS VL: DIVLTQSPDSLAVSLGERATINCRASQSVRSSGYNWIFWYQQKPGQPPKLLIYLASNRDSGVPDRFSGSGSGTDFTLTISSLQAEDVAVYYCQHSRELPTFGQGTKLEIK"
0.186,0.361,0.151,0.144,0.15,–,"QP32700279 (antibody, human IgG1, kappa, L234A L235A, V domains shown, also called SIRPα monoclonal antibody CHO71) VH: QVQLVQSGAEVKKPGASVKVSCKASGYTFTNYWINWVRQAPGQGLEWIAMIDPSDSETHYNQIFKDRATLTTDTSTSTAYMELRSLRSDDTAVYYCAMDYGSLYAMDYWGRGTLVTVSS VL: DIVLTQSPDSLAVSLGERATINCRASQSVRSSGYNWIFWYQQKPGQPPKLLIYLASNRDSGVPDRFSGSGSGTDFTLTISSLQAEDVAVYYCQHSRELPTFGQGTKLEIKR"

# — patent US20250326840A1 (QURE BIOTECHNOLOGY SHANGHAI, published 2025)
